Publication PMC11178655, “Dosimetry and pharmacokinetics of [^177Lu]Lu-satoreotide tetraxetan in patients with progressive neuroendocrine tumours” (European Journal of Nuclear Medicine and Molecular Imaging, 2024)
Several values for one entry are separate records, joined by “and”; a condition that tells them apart may be missing. Equal values may be shown once. Where a SMILES comes first, the peptide text is derived from it. Bridges are numbered along the chain shown (N, C = ends). [ ]: non-standard residue; d: D form. The star is where a group is joined. DOTA = O=C(O)CN1CCN(CC(=O)O)CCN(CC(=O)*)CCN(CC(=O)O)CC1; dPhe(4-NHCONH2) = NC(=O)Nc1ccc(C[C@@H](N)C(=O)O)cc1; Dihydroorotyl(S) = O=C1C[C@@H](C(=O)*)NC(=O)N1; Phe(4-Cl) = N[C@@H](Cc1ccc(Cl)cc1)C(=O)O; Phe(4-NH2) = Nc1ccc(C[C@H](N)C(=O)O)cc1

Test system: patients with progressive, SSTR-positive NETs
Assay: Patient-specific image-based dosimetry (NUKDOS) of tumours and organs, phase I/II trial
Format: in vivo, human
Method: In both parts A and B of the study, patients underwent planar whole-body imaging at 4 h and 1, 2, 3, and 6 days after each [^177Lu]Lu-satoreotide tetraxetan treatment cycle. Patients in part A also underwent single-photon emission computed tomography/computed tomography (SPECT/CT) at 24 h after each [^177Lu]Lu-satoreotide tetraxetan cycle. Those in part B underwent SPECT/CT, immediately before or after planar scintigraphy, at 4 h, and 1, 2, 3, and 6 days after each [^177Lu]Lu-satoreotide tetraxetan administration. Full details of the image acquisition methodology are provided in the Supplementary Information.
Delineation of tumour volumes was performed on anatomical SPECT/CT images after each [^177Lu]Lu-satoreotide tetraxetan administration. Tumours with a longest diameter < 2 cm were not analysed due to the difficulty in correcting for partial volume effects caused by the limited spatial resolution of the SPECT/CT systems. For study inclusion in part A, one tumour lesion ≥ 2 cm must have been present for eligibility; in part B, two or more tumour lesions ≥ 2 cm must have been present, each with an uptake on SSTR imaging higher than that of normal liver parenchyma (target lesion on [^68Ga]Ga-DOTA-TATE or -DOTA-TOC positron emission tomography: maximum standardised uptake value [SUVmax] ≥ 2x the mean SUV [SUVmean] of liver background; or ^111In-scintigraphy/SPECT: Krenning score 3 or 4 [uptake > normal liver, or uptake > spleen or kidneys, respectively [26]]).
Reconstruction parameters were set up to produce isotropic voxels of < 5 mm; voxels were continuous throughout the field of view. Anatomic coverage of the acquisition was determined according to the patients’ tumour locations on the planar whole-body scan acquisition with liver, both kidneys and spleen in the same bed position. For organs showing [^177Lu]Lu-satoreotide tetraxetan uptake, regions of interest (ROIs)/volumes of interest (VOIs) were drawn manually over the whole organs of interest (whole body, left and right kidneys, liver, spleen, and bone marrow), using the NUKDOS software for planar whole-body scans and the SPECT/CT acquired in part A [27]. VOIs for the same organs were drawn for all SPECT/CT images acquired in part B. All ROIs/VOIs were then used for activity quantification. Time-integrated activity coefficients (TIACs) for a given source volume were computed by integrating the time-activity curves. Full details of the tumour delineation and activity quantification methodology are provided in the Supplementary Information.
Patient-specific dosimetry calculations were performed after each treatment cycle in both parts A and B, using the absorbed dose calculation features of the NUKDOS software for image-based dosimetry calculations. The NUKDOS software was chosen as it allowed for an integral approach to organ dosimetry (including image quantification, time-activity curve-fitting and dosimetry calculation). For the bone marrow, both image-based and blood-based calculations were performed in part A [28, 29]. In part B, only image-based bone marrow dosimetry was performed. Organ Level INternal Dose Assessment/EXponential Modelling (OLINDA/EXM) version 1.0 software, the most widely used version at the time of the study, was used to perform model-based dosimetry calculations, which were only performed after the first [^177Lu]Lu-satoreotide tetraxetan cycle for patients in part B. To generate organ-specific absorbed doses, TIACs were used as input data. Full details on OLINDA/EXM software settings and organ-specific TIAC calculation methods are provided in the Supplementary Information.
All images were acquired with a 20% energy window around the main photopeak of ^177Lu (208 keV). For scatter correction, the triple-energy window method was applied based on the recommendation of the Committee on Medical Internal Radiation Dose. Whole-body images were acquired with a scanning time of 20 cm/min in a 256 × 1,024 matrix. […]

[1] = Part B Cohort 3 (4.5 GBq, 300 µg; 700 µg at cycle 2), median (range), n = 8
[2] = Part B Cohort 3 (4.5 GBq/cycle), image-based dosimetry, median (range), n = 6
[3] = Part B Cohort 3 (4.5 GBq/cycle), median (range), n = 8
[4] = Part B Cohort 3 (4.5 GBq/cycle), median (range), n = 9
[5] = Part B Cohort 3, median (range), n = 8
[6] = Part B Cohort 6 (4.5 GBq/cycle), median (range), n = 6
[7] = Part B Cohort 6 (4.5 GBq/cycle), median (range), n = 7
[8] = Part B Cohort 6 (4.5 GBq/cycle), median (range), n/n-les 4/9

C[C@@H](O)[C@@H]1NC(=O)[C@H](CCCCN)NC(=O)[C@@H](Cc2ccc(NC(N)=O)cc2)NC(=O)[C@H](Cc2ccc(NC(=O)[C@@H]3CC(=O)NC(=O)N3)cc2)NC(=O)[C@H](NC(=O)[C@H](Cc2ccc(Cl)cc2)NC(=O)CN2CCN(CC(=O)O)CCN(CC(=O)O)CCN(CC(=O)O)CC2)CSSC[C@@H](C(=O)N[C@H](Cc2ccc(O)cc2)C(N)=O)NC1=O [[^177Lu]Lu-satoreotide tetraxetan, metal not drawn] ({DOTA}-[Phe(4-Cl)][dC][Phe(4-NH2)](Dihydroorotyl(S))[dPhe(4-NHCONH2)]KTC[dY]-NH2; disulfide 2-7 (inferred); C-terminus assumed)
Cycle 3 ADC, Kidneys [1]: 0.8 (0.4–1.2) Gy/GBq | Cycle 3 ADC, Tumours [1]: 5.5 (2.6–16.8) Gy/GBq | Ratio of ADCs Cycle 2/Cycle 1 (700 vs. 300 µg), Bone marrow [2]: 95.0 (36.4–143) % | Ratio of ADCs Cycle 2/Cycle 3 (700 vs. 300 µg), Bone marrow [2]: 95.0 (60.0–125) % | Ratio of ADCs Cycle 2/Cycle 3 (700 vs. 300 µg), Spleen (Part B Cohort 3 (4.5 GBq/cycle), median (range), n = 5): 79.3 (61.2–90.8) % | Ratio of ADCs Cycle 2/Cycle 1 (700 vs. 300 µg), Spleen (Part B Cohort 3 (4.5 GBq/cycle), median (range), n = 6): 61.9 (45.9–108) % | Ratio of ADCs Cycle 2/Cycle 3 (700 vs. 300 µg), Body [3]: 101 (78.7–132) % | Ratio of ADCs Cycle 2/Cycle 3 (700 vs. 300 µg), Kidney [3]: 82.0 (64.8–110) % | Ratio of ADCs Cycle 2/Cycle 1 (700 vs. 300 µg), Body [4]: 83.3 (52.8–100) % | Ratio of ADCs Cycle 2/Cycle 1 (700 vs. 300 µg), Kidney [4]: 80.8 (61.0–113) % | Ratio of ADCs Cycle 2/Cycle 3 (700 vs. 300 µg), Liver lesions (Part B Cohort 3 (4.5 GBq/cycle), median (range), n/n-les 6/9): 68.9 (57.3–121) % | Ratio of ADCs Cycle 2/Cycle 1 (700 vs. 300 µg), Liver lesions (Part B Cohort 3 (4.5 GBq/cycle), median (range), n/n-les 7/10): 70.4 (52.4–95.7) % | Ratio of ADCs Cycle 2/Cycle 3 (700 vs. 300 µg), All lesions (Part B Cohort 3 (4.5 GBq/cycle), median (range), n/n-les 8/15): 77.6 (52.4–121) % | Ratio of ADCs Cycle 2/Cycle 1 (700 vs. 300 µg), All lesions (Part B Cohort 3 (4.5 GBq/cycle), median (range), n/n-les 9/17): 62.5 (27.6–95.7) % | Ratio of Cycle 3/ Cycle 1 ADCs, Bone marrow (Part B Cohort 3, image-based dosimetry, median (range), n = 6): 106 (36.4–138) % | Ratio of Cycle 3/ Cycle 1 ADCs, Spleen (Part B Cohort 3, median (range), n = 5): 87.8 (76.0–152) % | Ratio of Cycle 3/ Cycle 1 ADCs, Kidneys [5]: 94.1 (78.9–146) % | Ratio of Cycle 3/ Cycle 1 ADCs, Tumours [5]: 80.5 (44.1–152) % | Cycle 1 ADC, Bone marrow (Part B Cohort 6 (4.5 GBq, 300 µg), image-based dosimetry, median (range), n = 6): 0.1 (0.0–0.2) Gy/GBq | Cycle 1 ADC, Spleen (Part B Cohort 6 (4.5 GBq, 300 µg), median (range), n = 6): 0.8 (0.4–1.0) Gy/GBq | Cycle 1 ADC, Tumours (Part B Cohort 6 (4.5 GBq, 300 µg), median (range), n = 8): 13.5 (2.2–81.0) Gy/GBq | Cycle 1 ADC, Kidneys (Part B Cohort 6 (4.5 GBq, 300 µg), median (range), n = 9): 0.8 (0.4–1.1) Gy/GBq | Cycle 3 ADC, Bone marrow (Part B Cohort 6 (4.5 GBq, 300 µg; 1,300 µg at cycle 2), image-based dosimetry, median (range), n = 3): 0.1 (0.0–0.1) Gy/GBq | Cycle 3 ADC, Spleen (Part B Cohort 6 (4.5 GBq, 300 µg; 1,300 µg at cycle 2), median (range), n = 4): 0.8 (0.7–1.5) Gy/GBq | Cycle 3 ADC, Tumours (Part B Cohort 6 (4.5 GBq, 300 µg; 1,300 µg at cycle 2), median (range), n = 5): 7.7 (3.2–70.3) Gy/GBq | Cycle 3 ADC, Kidneys (Part B Cohort 6 (4.5 GBq, 300 µg; 1,300 µg at cycle 2), median (range), n = 6): 0.8 (0.7–1.2) Gy/GBq | Ratio of ADCs Cycle 2/Cycle 3 (1300 vs. 300 µg), Bone marrow (Part B Cohort 6 (4.5 GBq/cycle), image-based dosimetry, median (range), n = 3): 114 (50.0–120) % | Ratio of ADCs Cycle 2/Cycle 1 (1300 vs. 300 µg), Bone marrow (Part B Cohort 6 (4.5 GBq/cycle), image-based dosimetry, median (range), n = 4): 200 (80.0–240) % | Ratio of ADCs Cycle 2/Cycle 3 (1300 vs. 300 µg), Spleen (Part B Cohort 6 (4.5 GBq/cycle), median (range), n = 4): 49.7 (49.3–52.6) % | Ratio of ADCs Cycle 2/Cycle 1 (1300 vs. 300 µg), Spleen (Part B Cohort 6 (4.5 GBq/cycle), median (range), n = 5): 48.0 (44.3–94.4) % | Ratio of ADCs Cycle 2/Cycle 3 (1300 vs. 300 µg), Body [6]: 87.6 (72.7–102) % | Ratio of ADCs Cycle 2/Cycle 3 (1300 vs. 300 µg), Kidney [6]: 72.4 (52.8–96.3) % | Ratio of ADCs Cycle 2/Cycle 1 (1300 vs. 300 µg), Body [7]: 82.3 (48.3–97.6) % | Ratio of ADCs Cycle 2/Cycle 1 (1300 vs. 300 µg), Kidney [7]: 92.5 (65.9–121) % | Ratio of ADCs Cycle 2/Cycle 1 (1300 vs. 300 µg), Liver lesions [8]: 48.4 (24.7–76.5) % | Ratio of ADCs Cycle 2/Cycle 3 (1300 vs. 300 µg), Liver lesions [8]: 67.9 (40.6–104) % | Ratio of ADCs Cycle 2/Cycle 3 (1300 vs. 300 µg), All lesions (Part B Cohort 6 (4.5 GBq/cycle), median (range), n/n-les 5/11): 67.9 (40.6–104) % | Ratio of ADCs Cycle 2/Cycle 1 (1300 vs. 300 µg), All lesions (Part B Cohort 6 (4.5 GBq/cycle), median (range), n/n-les 6/13): 44.4 (24.7–76.5) % | Ratio of Cycle 3/ Cycle 1 ADCs, Bone marrow (Part B Cohort 6, image-based dosimetry, median (range), n = 3): 200 (175–400) % | Ratio of Cycle 3/ Cycle 1 ADCs, Spleen (Part B Cohort 6, median (range), n = 3): 185 (84.2–192) % | Ratio of Cycle 3/ Cycle 1 ADCs, Tumours (Part B Cohort 6, median (range), n = 4): 79.0 (28.6–114) % | Ratio of Cycle 3/ Cycle 1 ADCs, Kidneys (Part B Cohort 6, median (range), n = 5): 143 (88.8–198) % | Cumulative bone marrow absorbed dose, single patient (cohort 1 patient, one cycle at 5.9 GBq, developed grade 3 thrombocytopenia): 3.6 Gy | Overall specific absorbed dose coefficient in all lesions, initial diagnosis Pheochromocytoma + paraganglioma (first treatment cycle, median, N = 4): 2.1 Gy/GBq | Overall specific absorbed dose coefficient in all lesions, initial diagnosis Lung NET (first treatment cycle, median, N = 6): 5.1 Gy/GBq | Overall specific absorbed dose coefficient in all lesions, initial diagnosis GEP-NET (first treatment cycle, median, N = 23): 5.8 Gy/GBq | Patients with ADC ratio > 150% between cycle 3 and cycle 1, bone marrow (human, in vivo): 23.8 % of patients | Patients with ADC ratio > 150% between cycle 3 and cycle 1, kidneys (human, in vivo): 8.3 % of patients | Patients with ADC ratio > 150% between cycle 3 and cycle 1, liver (human, in vivo): no patients | Patients with ADC ratio > 150% between cycle 3 and cycle 1, spleen (human, in vivo): 22.2 % of patients | Mean cumulative absorbed dose in the left and right kidneys, single patient (part A patient, three cycles each at 4.5 GBq, eGFR below normal at baseline, no further deterioration of renal function): 24.1 Gy | Cumulative bone marrow absorbed dose, single patient (part A patient, three treatment cycles at 4.5, 4.4 and 4.3 GBq, no acute haematological toxicity): 2.2 Gy | Cumulative absorbed dose, bone marrow, image-based method (part A, cycles 1–3, 11 evaluated patients, median): 1.1 Gy | Cycle 1 ADC, Tumours (part B (all cohorts), median [range]): 7.9 [1.9–83.3] Gy/GBq | Cumulative bone marrow absorbed dose, single patient (part B cohort 1 patient, two treatment cycles at 4.7 GBq, no acute haematological toxicity): 1.9 Gy | Cumulative absorbed dose, kidneys (both left and right) (parts A and B, after cycles 1–3, median, pre-specified limit 23.0 Gy): 10.8 Gy | Cumulative absorbed dose, bone marrow, image-based (parts A and B, patients who completed three cycles (n = 21), median, pre-specified limit 1.5 Gy): 1.1 Gy | Cycle 1 ADC of tumours with ADC ratio cycle 3/cycle 1 > 150% (range): 0.6–4.1 Gy/GBq | Observations of ADC ratio between cycle 3 and cycle 1 in tumours > 150% (share of observations): 6.5% | Cumulative bone marrow absorbed dose, single patients (two additional patients after treatment cycle 4, individual values): 1.5 Gy and 1.8 Gy
